Laboratory results reported in patent US20240383984A1 (Genentech, published 2024).

Assays:
[1] = biological target: T1, human FcRH5 (full-length, on cells) (human, UniProt Q96RD9 16-977); assay: flow cytometry, SVT2 cells
T1 construct: Transfected SVT2/293 cells or endogenous expression (MOLP-2, primary cells); also called SVT2-FcRH5; SVT2-huFcRH5
T1 sequence: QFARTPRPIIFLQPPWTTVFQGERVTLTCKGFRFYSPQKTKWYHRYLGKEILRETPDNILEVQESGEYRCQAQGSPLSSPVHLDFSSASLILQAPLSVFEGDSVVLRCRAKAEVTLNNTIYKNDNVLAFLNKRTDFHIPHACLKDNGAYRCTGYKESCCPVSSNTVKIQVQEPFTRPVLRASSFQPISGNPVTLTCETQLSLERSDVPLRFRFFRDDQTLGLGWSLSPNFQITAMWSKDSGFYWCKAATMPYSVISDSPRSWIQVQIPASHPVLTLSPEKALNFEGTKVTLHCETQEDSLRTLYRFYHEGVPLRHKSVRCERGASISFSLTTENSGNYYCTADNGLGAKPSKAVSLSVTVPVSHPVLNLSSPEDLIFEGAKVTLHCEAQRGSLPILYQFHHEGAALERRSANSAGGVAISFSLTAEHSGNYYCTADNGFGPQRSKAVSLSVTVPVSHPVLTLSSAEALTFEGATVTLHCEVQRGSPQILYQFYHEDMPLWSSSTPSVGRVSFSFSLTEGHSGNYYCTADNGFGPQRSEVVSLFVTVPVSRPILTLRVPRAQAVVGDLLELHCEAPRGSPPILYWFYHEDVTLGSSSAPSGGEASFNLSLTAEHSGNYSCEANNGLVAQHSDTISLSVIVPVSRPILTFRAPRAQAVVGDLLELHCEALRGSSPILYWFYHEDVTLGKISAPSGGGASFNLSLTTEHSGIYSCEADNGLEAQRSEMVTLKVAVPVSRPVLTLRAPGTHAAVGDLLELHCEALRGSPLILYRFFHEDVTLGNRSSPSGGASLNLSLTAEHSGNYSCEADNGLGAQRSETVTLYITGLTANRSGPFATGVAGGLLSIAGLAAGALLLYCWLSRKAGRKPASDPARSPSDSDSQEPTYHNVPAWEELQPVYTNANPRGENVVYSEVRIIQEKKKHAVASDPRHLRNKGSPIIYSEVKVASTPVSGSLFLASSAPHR
Procedure: (§1) Human FcRH5, cyno FcRH5, human FcRH1, FcRH2, FcRH3, and FcRH4 transfected mouse SVT2 cells were used to test binding and cross-reactivity of FcRH5 TDBs. The method was carried out as follows. Cultured SVT2 cells were lifted using non-enzyme cell dissociation buffer (Sigma, #C5914). 1×10⁵ cells were suspended in 100 μL and incubated with FcRH5 TDBs at 3 μg/ml. […] Cells were washed twice with FACS buffer before flow cytometry analysis was carried out on a FACSCalibur.

[2] = biological target: T2, human FcRH3 (full-length, on SVT2 cells) (human, UniProt Q96P31 18-734); assay: flow cytometry, SVT2 cells
T2 construct: whole, on cells; also called SVT2-FcRH3
T2 sequence (looked up): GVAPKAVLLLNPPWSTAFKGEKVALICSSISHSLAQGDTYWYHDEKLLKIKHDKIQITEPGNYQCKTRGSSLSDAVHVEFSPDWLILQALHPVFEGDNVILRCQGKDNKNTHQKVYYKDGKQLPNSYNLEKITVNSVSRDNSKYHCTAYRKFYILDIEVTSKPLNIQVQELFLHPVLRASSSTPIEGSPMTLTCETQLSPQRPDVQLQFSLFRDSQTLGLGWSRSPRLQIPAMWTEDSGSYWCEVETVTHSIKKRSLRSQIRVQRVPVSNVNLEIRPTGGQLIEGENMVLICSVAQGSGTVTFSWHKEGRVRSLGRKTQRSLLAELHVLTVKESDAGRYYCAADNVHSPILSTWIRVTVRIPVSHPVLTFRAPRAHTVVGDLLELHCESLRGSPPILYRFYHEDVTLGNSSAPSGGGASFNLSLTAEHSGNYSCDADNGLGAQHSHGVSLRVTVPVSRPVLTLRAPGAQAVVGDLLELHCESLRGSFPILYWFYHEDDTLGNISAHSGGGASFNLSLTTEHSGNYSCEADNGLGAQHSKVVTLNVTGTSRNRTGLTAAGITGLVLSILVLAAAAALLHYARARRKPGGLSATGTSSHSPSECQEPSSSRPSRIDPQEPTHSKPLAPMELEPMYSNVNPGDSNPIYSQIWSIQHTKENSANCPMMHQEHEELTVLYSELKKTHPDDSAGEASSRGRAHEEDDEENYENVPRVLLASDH
Procedure: as §1

binding result [1]: binds | binding result [2]: no binding
B1: hu1G7.v87/38E4.v1 TDB (bispecific antibody, V domains shown)
VH 1: EVQLVESGPGLVKPSETLSLTCTVSGFSLTRFGVHWVRQPPGKGLEWLGVIWRGGSTDYNAAFVSRLTISKDNSKNQVSLKLSSVTAADTAVYYCSNHYYGSSDYALDNWGQGTLVTVSS
VL 1: DIQMTQSPSSLSASVGDRVTITCKASQDVSNIVVWFQQKPGKSPKLLIYSASYRYTGVPSRFSGSGSGTDFTLTISSLQPEDFATYYCQQHYSSPYTFGQGTKVEIK
VH 2: EVQLVQSGAEVKKPGASVKVSCKASGFTFTSYYIHWVRQAPGQGLEWIGWIYPENDNTKYNEKFKDRVTITADTSTSTAYLELSSLRSEDTAVYYCARDGYSRYYFDYWGQGTLVTVSS
VL 2: DIVMTQSPDSLAVSLGERATINCKSSQSLLNSRTRKNYLAWYQQKPGQSPKLLIYWTSTRKSGVPDRFSGSGSGTDFTLTISSLQAEDVAVYYCKQSFILRTFGQGTKVEIK
notes: knob-into-hole TDB; also called 1G7.v87 TDB
